Reference: the DeepSol protein solubility set

Experiment: soluble on expression in E. coli; label from the status in PepcDB or PDB records

Sequence | soluble on expression in E. coli
MGSDKIHHHHHHMSVFATFASQTRIQAILVMQTALSVSSRLSLEPTGTDMPVIKGPDGLPFIPGSSIKGVVRFQVERILRTWDRRPDFWACDPFDAPCIPAKKKEQLLNDAETDQSFAETVWKESCTACRLFGSPWFAGRVAFRDAYLLNPEDLPTLTQIRDGVGIDRDLGTARSGIKYDFETVIPGARFGLEILAENLEEWEIGFLLTVLRLWEEGGIAIGGKTTRGPGWGKLQEIKIQRVGISNLMDYLLERKSSEVAATQFLQTFREWLKERGAGDA | not soluble
MGSDKIHHHHHHVSSLSFNFAPDFRPLAARMRPRSIAEYIGQAHLLGEGQPLRKALEAGRAHSMMLWGPPGTGKTTLAELIAQYSNAHVERISAVTSGVKEIRAAIEQAKAIAESRGQRTLLFVDEVHRFNKSQQDAFLPFIEDGTVIFIGATTENPSFEINNALLSRARVYLIKRLSNNEIAHIVTQALADTERGLGLRQLEMPESVLIKLAQLCDGDARKALNLLELMSDMVSDNDTFTLEMLVQVAGHQVAGFDKNGDQFYDLISAVHKSIRGSAPDAALYWYCRILEGGGDPLYVARRLLAIASEDVGNADPAAMTIALNAWDCFHRVGPAEGERAIAQAIVYLASAPKSNAVYTAFKAARALARETGQESVPHHLRNAPTQLMKEIGMGEGYRYAHDEPNAYASGENYFPESLKTAQFYFPTERGFEKRIKDKLIQLTQLDQVSENKRYD | not soluble
MLGLFDQGRLIGAVVLDPRRLGPERDWLQLKFLHLSHAYRRRGLGAHLFHLAATQARHLGASALYVSATPSQNTVDFYTRLGCR | soluble
MFQLSVQDIHPGEQAGNKEEAIRQIAAALAQAGNVAGGYVDGMLAREQQTSTFLGNGIAIPHGTTDTRDQVLKTGVQVFQFPQGVTWGEGQVAYVAIGIAASSDEHLGLLRQLTHVLSDDSVAEQLKSATTAEELRALLMGEKQSEQLKLDNETMTLDVIASSLVTLQALNAARLKEAGAVDAAFVAKTINDSPMNLGQGIWLNDSAEGNLRSAVAVSRATQAFDVEGEKAALLVTVAMNDEQPIAVLKRLGDLLLNNKADRLLSADAATLLALLTSDDALTDDVLSAEFVVRNEHGLHARPGTMLVNTIKQFNSEITVTNLDGTGKPANGRSLMKVVALGVKKGHRLRFTAQGEDAEQALKAIGDAIAAGLGEGA | not soluble
MSLAVLGDVARLADVSTATVSRVYNEPDKVSPSVRERVLQAAAALNWIPNAAGRALASTRTHIAGAIIPTLDDQVFASQVAGMQAVFAERGITLFLGCSNYDPAQALIQVRAMLARGVEVIAIVGEAHPPELFDALKQARVPYAITYAYREGSPHHCIGFDNRAAFVAIAEHLLALGHRTFAAVIQPARDNDRVQARVAGIREALERHGIAVRPSHLHEGPATIAFGRQSLRAIWQGADERPTAIICGNDQLAIGVLLEAAELGIKVPQQLSVTGFDDVAIAQQIHPSLTTVRVDTAEIGRRAARYLLDVLDGKEAAESGLVQPELMVRESTAEGHHHHHH | soluble
MGSDKIHHHHHHMISDTTIRKLVDYISLNACSVNSSGLYNGKSGISLALFETAKCLQDTEIEDKAFSLFQESLIRKTNDYGFENGMSGIGYVLIYLITNKLIDADFEDLFGDQREAIIKHFENIDKQPDKLLVSYKIIYFLFVLDKLQKQDERIYSIIEKIFQGLELYLSLQFFDWKNIYYINSKDYVLQMYEAYLKLVDFCNYKYFSKSLMDSYVTLYSEGRIASSLVRGYYLHSIITKNNMVGFNDVIRDHIRYGQKNINPAILFLDQKINLTGIIENADENRVKIQRIEMDLFEESLERIKRMVRPNCIHVGYQYGLARYLGFCANKKFPLL | not soluble
MGSDKIHHHHHHMAAEALADEHLVMLAYRDPAIGDHIDVQKVRLPFRWEFDLPTIFSLVRLVWRKKIDILIPTKRKDYVLAGLVCRLTGAANILRLGIDRPLKNTPVQRLIYGWLADGIIVNADKIRRTLALSPWIDPDKVRVIYNGIDREKLEPDSVLPCKKPFSFTIGAAGALIPRKGFDYLIRSFARFSAGSNEITDAGLVIAGTGPERESLEKLAADLGISGRVRFTGHLTNPYPVMRACDLFVSASTSEGLANVLLESMALHCVPVSTLSGGADELIEDGRNGFLVRYGDEKRLAEIFSELYKNPGKIASVAANAHQTIMQRFSIELMRKDLFEFCSEINDRKKGT | not soluble
MAHHHHHHMTLENKALLCLIKKYEEKNKFLNVVEYIHYVCTNLYSYEENLNYNIMYDEFLKDLKKYLKENILDYKHILENILLKTDINYVNEQNIVNDILSKKKIYDISFEEVKNTTMKSEYSMENIKTSVKTENKDISLNKEECNKDDHVQEDNIDKYNGLEGKNREKNICRNWKDEKSQHEFYQLQSFEKNENREWFRVDPNLNWKEKQQLIYNEIEKLKNEIKKITVHSESTKIIISSMICQSKIFLYELEDNIKDYKILKEKIMNDKYLLKKGDYINEVYNGIIQNQRIKIDNVKKTNKTLLNLYNKKFSNINYIISLNENINNVDFLYLNVLIHNRKETPQPYEQLQNKIPEYTNKEKEIFSNIEKNNDSLNLLDNLIVDITNKIDTNMDITNK | not soluble
MAHHHHHHMLKRSGTICSLQSVVRGAAKIAAAIVDASVGNVNVVDNSHNGEGGTPARAAGRSHTSSPPEVLPRSVVTQLHESKDDLRKNAVYMSVPSTRITRAAGFASLFVQLGWDHLVDRNGEGILSSQSHKRVVNTLRRMRGVVLKLGQMLSIQDPATVPQYVLQLFEQVRDSAYAMSREQLDQTLAKEYENINWRKDFFLEFDDEPIGAASIGQVHRATIKGEGDTQIEHVAVKVQYPGVATSIDSDIANLKMLISLHLLPPGMFVDRILQDLRQEFLLECRYKIEAAKQVRYAALIKQEPELQEVFVVPKVYESLSTENVLVTQFVTGIPVDRLANISGVQDLKNYVAERMLLLTLTELFRWRFMQTDPNYANFLFDAEKNKISLIDFGAAREYSKEFVKDYMDVVAAAARQDRDRIIEKSIKLGFLTGNEMKPMLDAHAASVELLGRPFRHHDKPFDFSAENLPSKIQEHVPTIIKLRLRPPPTPVYSLHRRISGIILLATKLKATVNSGEMFWNIYNSCRTNYE | not soluble
MLLTPAKTTRTEDSANSTDDSSKSSNSFMRAIVSSLMVKPITSLTNTVTCRQSSHHNSSPSKITRYDLIKAAAENDLKRSKSQGREKSRRNSNRRNNEEIFVANTASEIQRTKSSI | soluble
MFHGKHPGGLSERGRALLLEGGKALGLDLKPHLEAFSRLYALLQEASGKVNLTALRGEEEVVVKHFLDSLTLLRLPLWQGPLRVLDLGTGAGFPGLPLKIVRPELELVLVDATRKKVAFVERAIEVLGLKGARALWGRAEVLAREAGHREAYARAVARAVAPLCVLSELLLPFLEVGGAAVAMKGPRVEEELAPLPPALERLGGRLGEVLALQLPLSGEARHLVVLEKAALTSLAYPRRPGVPERHPLC | soluble
MDIVSVALQRYSTKAFDPSKKLTAEEADKIKTLLQYSPSSTNSQPWHFIVASTEEGKARVAKSAAGNYTFNERKMLDASHVVVFCAKTAMDDAWLERVVDQEDADGRFATPEAKAANDKGRRFFADMHRVSLKDDHQWMAKQVYLNVGNFLLGVAAMGLDAVPIEGFDAEVLDAEFGLKEKGYTSLVVVPVGHHSVEDFNAGLPKSRLPLETTLTEV | not soluble
MSLTKLIVICGATATGKSGLALNLAMRLGSVILSADSRQVYREFDIGTAKPTLAEQRAVPHYLIDICAPRETMTVADYQEQAQALINSLPVSPLLLVGGTGLYIRSIVQGMKIPRVAPNYELRSQLASLGQTTLYGILQQVDPIAAQKIHPNDPVRTLRAVEVFYITGIPISAQQGENPPDYPILQIGLDCEMERLTERIHKRTEQMITDGLVGEVEYLCQKYGAELPLLNTLGYQEIKQYLTGEISLEAAKELTVLHTRQFAKRQRTWFRASPQIEWFNADHPDLLDIVCQHIQQPEGHHHHHH | soluble
MGKENLYVVLPSYNEEANIGKLINEWNVQFKDLEARGIKLEIIIVNDGSTDNTLAVAEAFSKHNDNVVVIDHGVNKGLGEGLNTGINYVLSQKQKGYMCLMDGDMTHEPKYIFSMLDKLQEEKLDCVIASRYRRGAKVEGLSLFRKFLSFGARVLYTIRLGIPNVRDYTCGYRLYKTSVLEKLHKVYGKRIVKETGFACMMELIVKVSKENFKIGEVPFVLKYQLKGGESKMKVGKTIKRSLLLLRVYK | soluble
MNLFASEIFVFTPKGEIKTMPQNCTALDFAFSIHTFLGSHCIGAKVNHKLVPLSHKLQSGDQVEILTSKSQHVQPLEHHHHHH | not soluble
MEEWPALQWSQGTPASGPALQALEEYAFVPRDDESRQGIRTDALLVIRDGRLLYERYAGATGPQTPHLAWSASKSLLAVLLGVAFGEGRFQLQDPAAKFYPPLEAHPDITLADLLHWASGLDWQEDYEYAPLNSSVVAMLYTRGHRDMAAFTVQQAASGPPGQVFRYSSGDSNLLAASLRGMVGEGQYADYPWRALFEPLGITQAVWERDAAGTFVASSYLYLTARDLARIGLLMQRDGRWRDRQLLPKAWVEFCRTPFRGYRANQDVAVAGGHWWLNREVDGAPRPWPDAPADTYAALGHWGQALYVLPAQRLVIVRYGDDRDGSYQHNELLKRVLAAFATPEQPLEHHHHHH | not soluble
MADGMGNLIGWEKTGLVVGKQWITAKDDKVSDVCNANGEMGVIGLYEPFSHGALTIPGHPNCRCEVVSVSGGELGEFAEKKELRKAAMQYARDNFIGKSYVNKNSGHELKVTWQGVKHAASKANQAELSIMTKLDDLLRYAKYEGSYSDRKGHPNIIAAHKYRAVAKVGNESLNIGVIVREFPDDHKHYDHFILKDE | not soluble
MDNLETDRLILINYTLEMIQATINGTEALEKTSGYHVSPDWPGIDFFFYLPYVLENVKKDDKMIKWTRLVVLKTENKIIGEIGGQGNPDETGEIEIGYSIVPDYQNKGYMSEALISMIDWLEHQPVINRIFARCYEQNEASIQVLKHNHFVHIKEKDTEEKQGRVMMWEYPIKQT | not soluble
MHHHHHHGGGGGMINKPNQFVNHLSALKKHFASYKELREAFNDYHKHNGDELTTFFLHQFDKVMELVKQKDFKTAQSRCEEELAAPYLPKPLVSFFQSLLQLVNHDLLEQQNAALASLPAAKIIELVLQDYPNKLNMIHYLLPKTKAFVKPHLLQRLQFVLTDSELLELKRFSFFQALNQIPGFQGEQVEYFNSKLKQKFTLTLGEFEIAQQPDAKAYFEQLITQIQQLFLKEPVNAEFANEIIDAFLVSYFPLHPPVPLAQLAAKIYEYVSQIVLNEAVNLKDELIKLIVHTLYEQLDRPVGDEN | soluble
GMPELAVQKVVVHPLVLLSVVDHFNRIGKVGNQKRVVGVLLGSWQKKVLDVSNSFAVPFDEDDKDDSVWFLDHDYLENMYGMFKKVNARERIVGWYHTGPKLHKNDIAINELMKRYCPNSVLVIIDVKPKDLGLPTEAYISVEEVHDDGTPTSKTFEHVTSEIGAEEAEEVGVEHLLRDIKDTTVGT | soluble
MSLFYEEVFSDLKEEEKALLEFISSGNLEIDRKLEGGVPVGSLCLLEGGNDSGKSIFLQQIMWGALNQDKRVLALATEKTSKELLNQMESLKHGISDYFIIGRAKIFEINAGYVEENPQLSESLLQVLLECIKRCKEELILIDSLTIFAVNASENAVLNFFTECVKLCDNGKTILISVHGYAFSQSVLYRLRSVCSVCLELRIEQVGDQWIKTMEIQKLRGARKTRGNLLSFDVDSKFGLKIIPVSKVKAEGHHHHHH | soluble
MAHHHHHHMTEKENGNKDKRRKEKHRKHHRDRRESCNGVVNSSAAKTRPETAVAIEGADEEVENWDENRTRVDQLCQTYPNNMCNDCNNAGTRWASVNHGVFLCIRCSGIHRSLGVHVSKVKSANMDKWSAAEVHLMELIGNQRAKLLYEAHLPKDMKPMTFAESDATLQTFIQRKYQEKAFSVEAVDEKLRQYHKEARYGKKPKRNSSASRKKKANDGANDKAERSLKGEDTIKALYGSNAEVISKMSKRTGPIRGTFGVVNVGPEAYDERRKTLLEQFGFS | not soluble
